{"source": "paper PMC10540216", "about": "“Activity Guided Azide-methyllysine Photo-trapping for Substrate Profiling of Lysine Demethylases” (Journal of the American Chemical Society, 2023)", "molecules": {"B1": {"name": "PABP4_HUMAN (protein, UniProt Q13310 1-644, looked up)", "Polyadenylate-binding protein …": "MNAAASSYPMASLYVGDLHSDVTEAMLYEKFSPAGPVLSIRVCRDMITRRSLGYAYVNFQQPADAERALDTMNFDVIKGKPIRIMWSQRDPSLRKSGVGNVFIKNLDKSIDNKALYDTFSAFGNILSCKVVCDENGSKGYAFVHFETQEAADKAIEKMNGMLLNDRKVFVGRFKSRKEREAELGAKAKEFTNVYIKNFGEEVDDESLKELFSQFGKTLSVKVMRDPNGKSKGFGFVSYEKHEDANKAVEEMNGKEISGKIIFVGRAQKKVERQAELKRKFEQLKQERISRYQGVNLYIKNLDDTIDDEKLRKEFSPFGSITSAKVMLEDGRSKGFGFVCFSSPEEATKAVTEMNGRIVGSKPLYVALAQRKEERKAHLTNQYMQRVAGMRALPANAILNQFQPAAGGYFVPAVPQAQGRPPYYTPNQLAQMRPNPRWQQGGRPQGFQGMPSAIRQSGPRPTLRHLAPTGSECPDRLAMDFGGAGAAQQGLTDSCQSGGVPTAVQNLAPRAAVAAAAPRAVAPYKYASSVRSPHPAIQPLQAPQPAVHVQGQEPLTASMLAAAPPQEQKQMLGERLFPLIQTMHSNLAGKITGMLLEIDNSELLHMLESPESLRSKVDEAVAVLQAHHAKKEAAQKVGAVAAATS"}, "B2": {"name": "MTA2_HUMAN (protein, UniProt O94776 1-668, looked up)", "Metastasis-associated protein …": "MAANMYRVGDYVYFENSSSNPYLVRRIEELNKTANGNVEAKVVCLFRRRDISSSLNSLADSNAREFEEESKQPGVSEQQRHQLKHRELFLSRQFESLPATHIRGKCSVTLLNETDILSQYLEKEDCFFYSLVFDPVQKTLLADQGEIRVGCKYQAEIPDRLVEGESDNRNQQKMEMKVWDPDNPLTDRQIDQFLVVARAVGTFARALDCSSSIRQPSLHMSAAAASRDITLFHAMDTLQRNGYDLAKAMSTLVPQGGPVLCRDEMEEWSASEAMLFEEALEKYGKDFNDIRQDFLPWKSLASIVQFYYMWKTTDRYIQQKRLKAAEADSKLKQVYIPTYTKPNPNQIISVGSKPGMNGAGFQKGLTCESCHTTQSAQWYAWGPPNMQCRLCASCWIYWKKYGGLKTPTQLEGATRGTTEPHSRGHLSRPEAQSLSPYTTSANRAKLLAKNRQTFLLQTTKLTRLARRMCRDLLQPRRAARRPYAPINANAIKAECSIRLPKAAKTPLKIHPLVRLPLATIVKDLVAQAPLKPKTPRGTKTPINRNQLSQNRGLGGIMVKRAYETMAGAGVPFSANGRPLASGIRSSSQPAAKRQKLNPADAPNPVVFVATKDTRALRKALTHLEMRRAARRPNLPLKVKPTLIAVRPPVPLPAPSHPASTNEPIVLED"}, "B3": {"name": "PLOD2_HUMAN (protein, UniProt O00469 26-737, looked up)", "Procollagen-lysine,2-oxoglutar …": "ADSEKPSSIPTDKLLVITVATKESDGFHRFMQSAKYFNYTVKVLGQGEEWRGGDGINSIGGGQKVRLMKEVMEHYADQDDLVVMFTECFDVIFAGGPEEVLKKFQKANHKVVFAADGILWPDKRLADKYPVVHIGKRYLNSGGFIGYAPYVNRIVQQWNLQDNDDDQLFYTKVYIDPLKREAINITLDHKCKIFQTLNGAVDEVVLKFENGKARAKNTFYETLPVAINGNGPTKILLNYFGNYVPNSWTQDNGCTLCEFDTVDLSAVDVHPNVSIGVFIEQPTPFLPRFLDILLTLDYPKEALKLFIHNKEVYHEKDIKVFFDKAKHEIKTIKIVGPEENLSQAEARNMGMDFCRQDEKCDYYFSVDADVVLTNPRTLKILIEQNRKIIAPLVTRHGKLWSNFWGALSPDGYYARSEDYVDIVQGNRVGVWNVPYMANVYLIKGKTLRSEMNERNYFVRDKLDPDMALCRNAREMGVFMYISNRHEFGRLLSTANYNTSHYNNDLWQIFENPVDWKEKYINRDYSKIFTENIVEQPCPDVFWFPIFSEKACDELVEEMEHYGKWSGGKHHDSRISGGYENVPTDDIHMKQVDLENVWLHFIREFIAPVTLKVFAGYYTKGFALLNFVVKYSPERQRSLRPHHDASTFTINIALNNVGEDFQGGGCKFLRYNCSIESPRKGWSFMHPGRLTHLHEGLPVKNGTRYIAVSFIDP"}}, "data": [{"tested_on": "KDM4A-I71AzF", "test": "CASI: photo-crosslinking with HEK293T cell extracts, StrepTactin enrichment and LC-MS/MS proteomics;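 also: lysates from HEK293T cells pretreated with a KDM4 inhibitor to raise proteome methylation, affinity-purified after ±UV, gel-resolved, trypsin-digested, with exclusive unique peptides per protein averaged per condition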", "type": "binding, human", "settings": "sheet \"Final results but with 0.01\"", "values": [{"molecule": "B1", "Fold change (+UV/-UV)": 0}, {"molecule": "B2", "Fold change (+UV/-UV)": 4}, {"molecule": "B3", "Fold change (+UV/-UV)": 0.75}]}]}
